Data reported in patent publication US8389468B2, “Approach to the treatment of compartment syndrome” (Lantmannen AS-Faktor AB, priority 2006, dated 2013).

Tested on: HSV-1 infected rats
Assay: Intracranial pressure (ICP) and neurological symptoms in HSV-1 infected rats, fibre optic pressure sensor
Format: in vivo, rat
Conditions: HSV-1 infected rat treated twice daily, day 5
Method: Adult rats were infected by having a solution of the Herpes Simplex virus type 1 (HSV-1; strain 2762, batch 041028; 1.7×10^7 PFU/mL; 25 pL) instilled in their right nostril. One group of animals (n=6) received 10 min after the infection 25 pL (10 pg) of AF-16 in their right nostril, and had thereafter the same dose of AF-16 instilled twice daily, every morning at 8 AM and every night at 6 PM, until the experiment was terminated on day 6. Additional HSV-1 infected rats (n=6) received in the nose at the same time intervals 25 pL of the vehicle, phosphate buffered saline (PBS). On day 6, the animals were anaesthetized, a surgical incision made through the skin on the head, and the skull bone freed from periostium and connective tissue. A hole with a diameter of about 1 mm was drilled through the right parietal bone and a miniature pressure sensor inserted 3-5 mm into the brain or into the lateral ventricle. A fibre optic pressure measure system (Samba System 3200 & Samba Preclin 420 sensor; Samba Sensors AB, V Frolunda, Sweden) with a very small diameter, ve. 0.4 mm, was used. […] HSV-1 infected rats treated with just the vehicle were measured to have as high pressures as up to 30-45 mm Hg (FIG. 2a), considerably affect the animals as reflected by symptoms of neurological dysfunction of increasing severity. In contrast, HSV-1 infected rats treated from the time of infection with AF-16 twice daily had almost normal ICP, 8-14 mm Hg (FIG. 2 b).
Additional HSV-1 infected animals with distinctly overt symptoms were as well treated with 10 or 25 pg AF-16 intranasally, starting on day 5, 6 or 7, i.e. after having had the vehicle during the previous days. […] Thus, non of the acutely AF-16 treated rats had any persistent signs of deleterious ICP and thus no CS developed. […] That is seen in the mentioned figure (FIG. 5 a) as there is no red staining of the right half on the figure. However, treatment with 10 or 25 pg AF-16 intranasally turned the picture in HSV-1 infected rats as in the normal, non-infected ones. […] Thereby the outflow of CSF was restored and the ICP turned normal.

B1: AF: antisecretory factor; antisecretory proteins and peptides; in FIG. 2b probably AF-16 (protein, UniProt P55036 1-377, looked up)
26S proteasome non-ATPase …: MVLESTMVCVDNSEYMRNGDFLPTRLQAQQDAVNIVCHSKTRSNPENNVGLITLANDCEVLTTLTPDTGRILSKLHTVQPKGKITFCTGIRVAHLALKHRQGKNHKMRIIAFVGSPVEDNEKDLVKLAKRLKKEKVNVDIINFGEEEVNTEKLTAFVNTLNGKDGTGSHLVTVPPGPSLADALISSPILAGEGGAMLGLGASDFEFGVDPSADPELALALRVSMEEQRQRQEEEARRAAAASAAEAGIATTGTEDSDDALLKMTISQQEFGRTGLPDLSSMTEEEQIAYAMQMSLQGAEFGQAESADIDASSAMDTSEPAKEEDDYDVMQDPEFLQSVLENLPGVDPNNEAIRNAMGSLASQATKDGKKDKKEEDKK
In the case of B1, the “ICP (FIG. 2b)” value is reported as “almost turned the ICP back to normal levels”.
